Test results taken from patent publication US6342394.

Biological target: human steroid 21-hydroxylase (21-OH), 125I-labelled (human) (UniProt P08686)
Assay: 125I-21-OH + protein A; competitor: autoantibodies in pooled patient sera; irrelevant control Fab

Sequence of UniProt P08686 (P08686 whole entry): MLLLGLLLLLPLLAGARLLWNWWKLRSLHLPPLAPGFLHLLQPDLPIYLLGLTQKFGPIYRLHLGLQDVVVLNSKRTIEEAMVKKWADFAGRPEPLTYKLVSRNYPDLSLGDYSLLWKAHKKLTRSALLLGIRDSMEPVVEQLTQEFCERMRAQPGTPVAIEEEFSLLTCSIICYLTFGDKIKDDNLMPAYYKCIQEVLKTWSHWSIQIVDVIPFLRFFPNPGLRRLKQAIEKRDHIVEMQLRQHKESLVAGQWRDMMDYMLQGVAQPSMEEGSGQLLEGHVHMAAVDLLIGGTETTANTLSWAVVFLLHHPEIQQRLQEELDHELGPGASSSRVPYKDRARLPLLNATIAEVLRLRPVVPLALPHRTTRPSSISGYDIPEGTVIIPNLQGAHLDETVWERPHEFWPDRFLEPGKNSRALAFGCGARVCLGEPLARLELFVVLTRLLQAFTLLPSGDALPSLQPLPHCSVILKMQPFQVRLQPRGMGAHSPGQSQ

- % inhibition of 125I-21-hydroxylase binding: < 15%
Substance: control Fab from a TSH receptor (TSHR) mouse monoclonal antibody
